assay: yeast display, Sf9 membrane polyspecificity reagent, FACS + sequencing; frameworks hold sequencing errors
Summary of the method: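 After 36–48 hours of galactose induction, yeast (Saccharomyces cerevisiae BJ5465) displaying a synthetic nanobody library were stained at 4 °C for 1 hour with 10% biotinylated, detergent-solubilized Sf9 membrane reagent. Streptavidin microbeads enriched the stained cells before FACS sorting into low and high (top ~1%) gates on anti-HA and streptavidin fluorescence. Each clone's polyreactivity label reflects its gate of origin.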

Sequence | polyreactivity (PSR sort gate)
QDQLVESGGGIVQAGGSLRLSCAASGSTFTWYAMGWYLQDPGKEREFVAAITRSGDSTYYADSVKGRFTISRDNAKNTVYLEMNSLKPEDTAVYYCAASNDYLRGWFDYWGQGTQVTVSS | low polyreactivity
QDQLVESGGGLDQAGCILRLSCAASGITFSVYTMGWSRQAPGKERELVAANDSDGITNYADSVKGRFTISRDNAKNTDYLQMNSLKPEDTAVYYCNAIADGSSSRWRPYSKFYYWGKGTQVTVSS | low polyreactivity
QDQLVESGGGLDQAGGSLRLSCAASGSTFPGYAMGWYRQAPGKERELVASIYTGGSTYYADSVKGRFTISRDNAKNTVYLQMNSLKPEDTAVYYCAADSYNVSSLLYYWGQGTQVTVSS | low polyreactivity
QDQLVESGGGLDQAGGSLRLSCAASGSTLGNNAMGWYRQAPGKERELVAAISTRGGSTYYADSVKGRFTISRDNAKNTVYLQMNSLKPEDTAVYYCAADFGQYHGDVRKMDYWGQGTQVTVSS | low polyreactivity
QDQLVESGGGLVQAGCSLRLSCAASGFIFPNYAMGWYRQAPGKERELVAAISTDGSTNYADSVKGRFTISRDNAKTTVYLQMNSLKTEDTAVYYCAKYGRVKPQRYDYDYWGQGTQVTVSS | high polyreactivity
QDQLVESGGGLVQAGGILRLSSSASGFTFAYYAMGWYRQSTGKERQLVAAISSRGGSTYYADTVKGRFSISRDNAKNTVYLQMNILKPEDTAVYYCAAEFGLWPYEYGYCGQGTQVTVSS | high polyreactivity
QDQLVESGGGLVQAGGRLRLSCAASGRIIRTYARGWDRQAPGKERELVAAITNGDSTNYADSVMGRFTMSRDNAKNTVYLQMNSLKPEDTAVYYCAVGAVVPGRRRRTYYYWGQGTQVTVSS | high polyreactivity
QDQLVESGGGLVQAGGSHRLTCAASGFIFAYYAMGWYRQAPGKERELVAAISRSGARTYYADSVKGRFTISRDNAKNTVYLQMKSLKPEDTAVFYCSARIIVDVVGTKYYYWGQGTQVTVSS | high polyreactivity
QDQLVESGGGLVQAGGSLRISCAASGRIFDYNAMGWYRQAPGKERELVAAITGGGNTTYADSVKGRFTISRDNAKNTVYLQMNSLKPEDTAVYYCAADVVSVYRLSYKPLGYYWGQGTQVTVSS | low polyreactivity
QDQLVESGGGLVQAGGSLRLICAASGFTITTYAMGWYRQAPGKERELVASISYSGGRTYYADSVKGRFTISRDNAKNTVYLQLNSLKPEDTAVYFCAAVGVRNRAPSRGGYWGQGPQVTVSS | high polyreactivity
QDQLVESGGGLVQAGGSLRLICAASGITFLVNAMGWYRQAPGKERELVAGITSGDSTNYADSVKGRFTISRDNAKNTVYLQMNSLKPEDTAVYYCATVLYVGSGGGGILWDDDYWGQGTQVTVSS | low polyreactivity
QDQLVESGGGLVQAGGSLRLICAASGSIFTSNAMGWYRQAAGKERELVAAITSSGGSTYYADSVKGRFTISRDNAKNTVYLHMNSLKPEYTAVYYCAAAKFDLSFWLYYWGQGTQVTVSS | low polyreactivity
QDQLVESGGGLVQAGGSLRLICAASGYIFVYNAMGWYRQTPWKERELVAAITDGGGSTYADSVKGRFTISRDNAKNSVYLQMNSLKPEDTAVYYCSARYSDTTWYVLYYYWGQGTQVTVSS | low polyreactivity
QDQLVESGGGLVQAGGSLRLIFAASGSIFNGYAMGWSRQAPGKERELVADIRSGGSTYYADSVMGRFTISRDNAKNTVYLQMNSLKPEDTAVYYGAADTITDGYDYWGQGSQVTVSS | low polyreactivity
QDQLVESGGGLVQAGGSLRLPCAASGYIFFFNAIGWYRQAPGKERELVAAITRRGVSTYYADSVKGRFTISRDNAKNTVYLQMNSLNPEDTAVYYCATDHNHLGYYYWGQGTQVTVSS | low polyreactivity
QDQLVESGGGLVQAGGSLRLRCAASGFTFGCYAMGWYRQAPGKERELVASITSGGSTNYADSVKGRFTISRDNAKNTVYLQMNTLKPEDTAVYYCAKDLLGFDKVQYKIEDYWGQGTQVTVSS | low polyreactivity
QDQLVESGGGLVQAGGSLRLSCAASGFIFSWYAMGWYRQPPGKERELVAGISIRGGRTYADSVKGRFTISRDNAKNTVYLQMNSLKPDDTAVYYCATRSYRPYHSLYDYWGQGTQVTVSS | high polyreactivity
QDQLVESGGGLVQAGGSLRLSCAASGFILKYYAMGWYRQAPGKEREFVAAITVSGGSTYYADSVKGRFTISRDNAKNTVYLQMNSLKPVDTAVYYCNADYPRGGAGLPDYWGQGTQVTVSS | low polyreactivity
QDQLVESGGGLVQAGGSLRLSCAASGFNFMSKGMGWYRQAHGKETEFVAVITSSTGSTSYADSVKGRFTISRDNAKNTVYLQMNSLKPEDTGVFYCAADAYYYYAGGHYYWGQGTQVTVSS | low polyreactivity
QDQLVESGGGLVQAGGSLRLSCAASGFTCRYYAMGWYRQAPGKERELVAAITGSGTRTYYADSVKGRFTISRDNAKNTVYLQMNSLKPEETAVYYCYPPRQPRWFDYWGQGTQVTVSS | high polyreactivity
QDQLVESGGGLVQAGGSLRLSCAASGFTFDENAMGWYRQAPGINYSGASTYYADSVKGRFTISRDNAKNTVYLQMNSLKPEDTAVYYCAAEVVAQMNYWGQGTQVTVSS | low polyreactivity
QDQLVESGGGLVQAGGSLRLSCAASGFTFGNNARGWYRQAPGKERQFVATISRRGGSTYYADSVKGRFTISRDNAKYTVYLQMNSLKPEDTAVYSCAVDRAGIKLAAGYDYWGQGTQVTVSS | high polyreactivity

Sequence | polyreactivity (PSR sort gate)
QDQLVESGGGLVQAGGSLRLSCAASGFTFYGYAMGWYRQAQGKERELVAAISSSGGRTYYADSVKGRFTISRDNAKNTVYLQMNSLKPEDTAVYYCAARARYIRGGGSRAYIGYYWGQGTQVTVSS | high polyreactivity
QDQLVESGGGLVQAGGSLRLSCAASGGIFPDNAMGWSRKAPGKERELVATISWSGGSTYADSVKWRFTISRDNAKNTVYLQMNRLKPEDTAVYYCAAGSAYLWGQGTQVSVSS | low polyreactivity
QDQLVESGGGLVQAGGSLRLSCAASGGIFYQYAMGWYRQAPGKERELVATITSGGRTSYADSVKGRFTISRDNAKNTFYLQMNSLNPEDTAVYYCAATTGWYGARYGYWGQGTQVTVSS | high polyreactivity
QDQLVESGGGLVQAGGSLRLSCAASGIIFAKYAMGWSRQAPGNERELVAAINARGGSTYYADSVKGRFTISRDNAMNTVYLQMNSLKPEDTAVYYCAAERRSRFGNGVTYDYWGQGTQVTVSS | high polyreactivity
QDQLVESGGGLVQAGGSLRLSCAASGIIFPQYTMGWYRQAPGKERELVAVITSGGSTYYADSVKGRFTISRDNAKNTVYLQMNSLKTEDTAVYYCAADAFYKFDYWGQGTQVTVSS | high polyreactivity
QDQLVESGGGLVQAGGSLRLSCAASGIILGGYVMGWYRQAPGKERELVAALSYSGGRTDYADSVKGRFTISRDKAKNTVYLQMNILNPEDTAVYYCATEYWRYHGITKGYTRYDYWGQGTQVTVSS | high polyreactivity
QDQLVESGGGLVQAGGSLRLSCAASGITFKFYAMGWYRQAPGKERELVAAISWSGGSTYYADSVKGRFTISRDNAKNTVYLQMNSLKPEDTAVYYCAAYTGWIYHTRYRRDYWGQGTQVTVSS | high polyreactivity
QDQLVESGGGLVQAGGSLRLSCAASGITFNRYAMGWYRQAPGKERELVAAISRTGGSTYYADSVKARFTISRDNAKNTVYLQMNSLKPEDTAVYYCASRYTKGMYYWGQVTQVTVSS | high polyreactivity
QDQLVESGGGLVQAGGSLRLSCAASGITFQRYAMGGYRQAPGKERELVAVINFRGSNTFYADSVKGRFTISRDNAKNSVYLQMNSLIPEDTAVYYCAASYVIDIRGYGYWGQGTQVTVSS | low polyreactivity
QDQLVESGGGLVQAGGSLRLSCAASGITFQYYAMGWYRQAPGKERELVAAITKRGGSTYYADSVKGRFTISRDNAKNTVYLQMKSLKPEDTAVYYCAADYGSWRNYIFLDDYWGQGTQVTVSS | high polyreactivity
QDQLVESGGGLVQAGGSLRLSCAASGITFRYYAMGWYRQAPGKERELVAAITGGGGSTYADSVKGRFTISRDNAKNTVYLQMNSLKPEDTAVYYCNATPRARSLPLRYQHDYWLQGTQVTVSS | low polyreactivity
QDQLVESGGGLVQAGGSLRLSCAASGITFYRNAMGWYRQAPGKERELVAAISRRGGITRYADSVKGRFTISRDNAKNTVYLQMNSLKPEDTAVYYCAKAIGSTALRRATEDYWGQGTQVTVSS | high polyreactivity
QDQLVESGGGLVQAGGSLRLSCAASGITSNPYDMGWYRQAAGKERELVAVITSGGSTSYADSVKGRFTISRDNAKNTVYLQLISLKREDTAVYYCNSVYAGWRGGNYWGQGTQVTVSS | low polyreactivity
QDQLVESGGGLVQAGGSLRLSCAASGLIFKYNAMGWSRQAPGKERELVADINRSGGSTYYADSVKGRFTISRDNSKNTVSLQMNSLKPEDSAVYDCAAERVSLYWVIFGYWGQGTQVTVSS | low polyreactivity
QDQLVESGGGLVQAGGSLRLSCAASGLIFYDNLGWYRQAPGKERELVAAISSSGGSTSYADSVKGRFTISRDNAKNTVYLQMNSLKPEDTAVYYCAADSYPAYLGFVGFDYWGQGTQVTVSS | low polyreactivity
QDQLVESGGGLVQAGGSLRLSCAASGLNLGIYAMGWYRQAPGKERELVAAISRGGGSTYYADSVKGRFTISRDNAKNTVYLQMNSLKPEDTAVFYCNAVRYRYGVFPYYYWGQGTQVTVSS | high polyreactivity
QDQLVESGGGLVQAGGSLRLSCAASGLTFYSNTMGWYRQAPGKERELVAGISWGGDTTYYADSVKGRFTISRDNAKNTVYLQMNSLKPEDTAVYYCAADRSYWRHRYSYDYWGQGTQVTVSS | low polyreactivity
QDQLVESGGGLVQAGGSLRLSCAASGNIFDYYAMGWYRQAPGKERELVATITWSSGRTYYADSVKGRFTISRDNAKNTVYLQMNSLKTEDTAVYYCNTRSYTRYDYWGQGTQVTVSS | low polyreactivity
QDQLVESGGGLVQAGGSLRLSCAASGRIFKFNAMGWYRPAPGKERELVAAITSGGSTNYADSVKGRFTLSRDNEKNTVYLQMNSLKREDTAVYYCAKSTPRFYPRGFYYWGHGTQVTVSS | low polyreactivity
QDQLVESGGGLVQAGGSLRLSCAASGRIFRYYAMGWYRQAPGKERELVAGMSGSGGSTYYADSVKGRFTISRDNAKNTVYLQMNSLKPEDTAVYYCAADYVRVGSLHGVYTYKKYDYWGQGTQVTVSS | high polyreactivity
QDQLVESGGGLVQAGGSLRLSCAASGRLFATYAMGWNRQAPGKERELVAAISDSGGRTYYADSVTGRFTSSRDNAKNTVYLQMNSLKPEDTAVYYCAAKNGDRYARGYWGQGTQVTVSS | high polyreactivity

From the nanobody polyreactivity screen of Harvey et al. (2022)
